Laboratory results taken from patent publication US20240166747A1.

Key:
[1] = biological target: human CD96v2 expressed on cells (human) (UniProt P40200); assay: competition flow cytometry, inhibition of CD155-Fc-AF647 binding to CHO cells expressing human CD96v2
[2] = biological target: human CD96v2 expressed on cells (human) (UniProt P40200); assay: flow cytometry, CHO cells expressing human CD96v2
[3] = biological target: native human CD96 on primary human T cells and NK cells (human) (UniProt P40200); assay: flow cytometry, primary human CD3+ T cells

IC50 [1] [nM]	EC50 [2] [nM]	EC50 [3] [nM]	Binder
0.03	0.47		42Y073-1A01-85 (antibody, V domains shown) VH: QVQLVQSGAEVKKPGASVKVSCKASGYTFTSYPMHWVRQAPGQGLEWMGIINPSGGFTSYAQKFQGRVTMTRDTSTSTVYMELSSLRSEDTAVYYCARETAYYTTKGNWFDPWGQGTLVTVSA VL: DIQMTQSPSSLSASVGDRVTITCRASQSISSYLNWYQQKPGKAPKLLIYAASSLQSGVPSRFSGSGSGTDFTLTISSLQPEDFATYYCQQSLYPPRTFGGGTKVEIK
0.76	0.06		42Y073-86F04-23 (antibody, V domains shown) VH: QVQLVQSGAEVKKPGSSVKVSCKASGGTFSGYPISWVRQAPGQGLEWMGGIIPIMGTARYAQKFQGRVTITADESTSTAYMELSSLRSEDTAVYYCARLLGESGMDVWGQGTTVTVSS VL: DIQMTQSPSSLSASVGDRVTITCRASQSISSYLNWYQQKPGKAPKLLIYAASSLQSGVPSRFSGSGSGTDFTLTISSLQPEDFATYYCQQPYFSPPTFGGGTKVEIK
0.03	0.77		42Y073-1A01-97 (antibody, V domains shown) VH: QVQLVQSGAEVKKPGASVKVSCKASGYTFTRAAMHWVRQAPGQGLEWMGIINPAGGYTSYAQKFQGRVTMTRDTSTSTVYMELSSLRSEDTAVYYCARETAYYTTKGNWFDPWGQGTLVTVSS VL: DIQMTQSPSSLSASVGDRVTITCRASQSISSYLNWYQQKPGKAPKLLIYAASSLQSGVPSRFSGSGSGTDFTLTISSLQPEDFATYYCQQSLYPPRTFGGGTKVEIK
0.06	0.02		42Y073-1A01-100 (antibody, V domains shown) VH: QVQLVQSGAEVKKPGASVKVSCKASGYTFTTYRMHWVRQAPGQGLEWMGIINPSGGLTQYAQKFQGRVTMTRDTSTSTVYMELSSLRSEDTAVYYCARETAYYTTKGNWFDPWGQGTLVTVSS VL: DIQMTQSPSSLSASVGDRVTITCRASQSISSYLNWYQQKPGKAPKLLIYAASSLQSGVPSRFSGSGSGTDFTLTISSLQPEDFATYYCQQSLYPPRTFGGGTKVEIK
0.25	0.06		42Y073-86F04-6 (antibody, V domains shown) VH: QVQLVQSGAEVKKPGSSVKVSCKASGGTFSGHAISWVRQAPGQGLEWMGGIIPIFGRARYAQKFQGRVTITADESTSTAYMELSSLRSEDTAVYYCARLLGESGMDVWGQGTTVTVSS VL: DIQMTQSPSSLSASVGDRVTITCRASQSISSYLNWYQQKPGKAPKLLIYAASSLQSGVPSRFSGSGSGTDFTLTISSLQPEDFATYYCQQPYFSPPTFGGGTKVEIK
0.03	0.01		42Y073-1A01-191 (antibody, V domains shown) VH: QVQLVQSGAEVKKPGASVKVSCKASGYTFTKYRMHWVRQAPGQGLEWMGIINPQGGSTSYAQKFQGRVTMTRDTSTSTVYMELSSLRSEDTAVYYCARETAYYTTKGNWFDPWGQGTLVTVSA VL: DIQMTQSPSSLSASVGDRVTITCRASQSISSYLNWYQQKPGKAPKLLIYAASSLQSGVPSRFSGSGSGTDFTLTISSLQPEDFATYYCQQSLYPPRTFGGGTKVEIK
0.03	0.02		42Y073-1A01-103 (antibody, V domains shown) VH: QVQLVQSGAEVKKPGASVKVSCKASGYTFTAYQMHWVRQAPGQGLEWMGIINPAGGWTSYAQKFQGRVTMTRDTSTSTVYMELSSLRSEDTAVYYCARETAYYTTKGNWFDPWGQGTLVTVSS VL: DIQMTQSPSSLSASVGDRVTITCRASQSISSYLNWYQQKPGKAPKLLIYAASSLQSGVPSRFSGSGSGTDFTLTISSLQPEDFATYYCQQSLYPPRTFGGGTKVEIK
0.31	0.04		42Y073-86F04-3 (antibody, V domains shown) VH: QVQLVQSGAEVKKPGSSVKVSCKASGGTFSYNAISWVRQAPGQGLEWMGGIIPIMGTARYAQKFQGRVTITADESTSTAYMELSSLRSEDTAVYYCARLLGESGMDVWGQGTTVTVSS VL: DIQMTQSPSSLSASVGDRVTITCRASQSISSYLNWYQQKPGKAPKLLIYAASSLQSGVPSRFSGSGSGTDFTLTISSLQPEDFATYYCQQPYFSPPTFGGGTKVEIK
0.38			42Y073-86F04-5 (antibody, V domains shown) VH: QVQLVQSGAEVKKPGSSVKVSCKASGGTFSSHAISWVRQAPGQGLEWMGGIIPIFGRGKYAQKFQGRVTITADESTSTAYMELSSLRSEDTAVYYCARLLGESGMDVWGQGTTVTVSS VL: DIQMTQSPSSLSASVGDRVTITCRASQSISSYLNWYQQKPGKAPKLLIYAASSLQSGVPSRFSGSGSGTDFTLTISSLQPEDFATYYCQQPYFSPPTFGGGTKVEIK
0.18	0.04		42Y073-86F04-4 (antibody, V domains shown) VH: QVQLVQSGAEVKKPGSSVKVSCKASGGTFESEAISWVRQAPGQGLEWMGGIIPIFGRARYAQKFQGRVTITADESTSTAYMELSSLRSEDTAVYYCARLLGESGMDVWGQGTTVTVSS VL: DIQMTQSPSSLSASVGDRVTITCRASQSISSYLNWYQQKPGKAPKLLIYAASSLQSGVPSRFSGSGSGTDFTLTISSLQPEDFATYYCQQPYFSPPTFGGGTKVEIK
0.1	0.02		42Y073-1A01-126 (antibody, V domains shown) VH: QVQLVQSGAEVKKPGASVKVSCKASGYTFTRYNMHWVRQAPGQGLEWMGWINPAGGSTSYAQKFQGRVTMTRDTSTSTVYMELSSLRSEDTAVYYCARETAYYTTKGNWFDPWGQGTLVTVSA VL: DIQMTQSPSSLSASVGDRVTITCRASQSISSYLNWYQQKPGKAPKLLIYAASSLQSGVPSRFSGSGSGTDFTLTISSLQPEDFATYYCQQSLYPPRTFGGGTKVEIK
0.59	0.07		42Y073-86F04-18 (antibody, V domains shown) VH: QVQLVQSGAEVKKPGSSVKVSCKASGGTFSSRAISWVRQAPGQGLEWMGGIIPIMGTARYAQKFQGRVTITADESTSTAYMELSSLRSEDTAVYYCARLLGESGMDVWGQGTTVTVSS VL: DIQMTQSPSSLSASVGDRVTITCRASQSISSYLNWYQQKPGKAPKLLIYAASSLQSGVPSRFSGSGSGTDFTLTISSLQPEDFATYYCQQPYFSPPTFGGGTKVEIK
0.26	0.04		42Y073-86F08-3 (antibody, V domains shown) VH: QVQLVQSGAEVKKPGSSVKVSCKASGGTFVNYAISWVRQAPGQGLEWMGGIIPALGTANYAQKFQGRVTITADESTSTAYMELSSLRSEDTAVYYCARGAGYYGDKDPMDVWGQGTTVTVSS VL: DIQLTQSPSSLSASVGDRVTITCRASQSISSYLNWYQQKPGKAPKLLIYAASSLQSGVPSRFSGSGSGTDFTLTISSLQPEDFATYYCQQVLHTITFGGGTKVEIK
0.17	0.05		42Y073-86F08-47 (antibody, V domains shown) VH: QVQLVQSGAEVKKPGSSVKVSCKASGGTFSQYAIHWVRQAPGQGLEWMGVIIPIFGKANYAQKFQGRVTITADESTSTAYMELSSLRSEDTAVYYCARGAGYYGDKDPMDVWGQGTTVTVSS VL: DIQLTQSPSSLSASVGDRVTITCRASQSISSYLNWYQQKPGKAPKLLIYAASSLQSGVPSRFSGSGSGTDFTLTISSLQPEDFATYYCQQVLHTITFGGGTKVEIK
0.38	0.04		42Y073-86F08-4 (antibody, V domains shown) VH: QVQLVQSGAEVKKPGSSVKVSCKASGGTFSEYAIHWVRQAPGQGLEWMGNIIPIFGTAGYAQKFQGRVTITADESTSTAYMELSSLRSEDTAVYYCARGAGYYGDKDPMDVWGQGTTVTVSS VL: DIQLTQSPSSLSASVGDRVTITCRASQSISSYLNWYQQKPGKAPKLLIYAASSLQSGVPSRFSGSGSGTDFTLTISSLQPEDFATYYCQQVLHTITFGGGTKVEIK
0.93	0.17		42Y073-86F08-8 (antibody, V domains shown) VH: QVQLVQSGAEVKKPGSSVKVSCKASGGTFWLYAISWVRQAPGQGLEWMGGIIPQLGTANYAQKFQGRVTITADESTSTAYMELSSLRSEDTAVYYCARGAGYYGDKDPMDVWGQGTTVTVSS VL: DIQLTQSPSSLSASVGDRVTITCRASQSISSYLNWYQQKPGKAPKLLIYAASSLQSGVPSRFSGSGSGTDFTLTISSLQPEDFATYYCQQVLHTITFGGGTKVEIK
0.52	0.1		42Y073-86F08-17 (antibody, V domains shown) VH: QVQLVQSGAEVKKPGSSVKVSCKASGGTFREYAISWVRQAPGQGLEWMGGIIPVFGTANYAQKFQGRVTITADESTSTAYMELSSLRSEDTAVYYCARGAGYYGDKDPMDVWGQGTTVTVSS VL: DIQLTQSPSSLSASVGDRVTITCRASQSISSYLNWYQQKPGKAPKLLIYAASSLQSGVPSRFSGSGSGTDFTLTISSLQPEDFATYYCQQVLHTITFGGGTKVEIK
0.78	0.03		42Y073-86F08-16 (antibody, V domains shown) VH: QVQLVQSGAEVKKPGSSVKVSCKASGGTFNEYAISWVRQAPGQGLEWMGGIVPVFGTAKYAQKFQGRVTITADESTSTAYMELSSLRSEDTAVYYCARGAGYYGDKDPMDVWGQGTTVTVSS VL: DIQLTQSPSSLSASVGDRVTITCRASQSISSYLNWYQQKPGKAPKLLIYAASSLQSGVPSRFSGSGSGTDFTLTISSLQPEDFATYYCQQVLHTITFGGGTKVEIK
0.41	0.03	0.1	42Y073-86F08-22 (antibody, V domains shown) VH: QVQLVQSGAEVKKPGASVKVSCKASGYTFDSYAMHWVRQAPGQGLEWMGGIIPIFGTAWYAQKFQGRVTITADESTSTAYMELSSLRSEDTAVYYCARGAGYYGDKDPMDVWGQGTTVTVSS VL: DIQLTQSPSSLSASVGDRVTITCRASQSISSYLNWYQQKPGKAPKLLIYAASSLQSGVPSRFSGSGSGTDFTLTISSLQPEDFATYYCQQVLHTITFGGGTKVEIK
